This is an account of results in publication PMC7594083, “Preclinical Evaluation of the GRPR-Targeting Antagonist RM26 Conjugated to the Albumin-Binding Domain for GRPR-Targeting Therapy of Cancer” (Pharmaceutics, 2020).

The conditions of data set [1]: cited from earlier work. An excerpt: However, as a consequence of the low amplitude for the melting curve of DOTA-ABD-RM26, the melting temperature can only be roughly estimated for this conjugate.
The nature of data set [2]: In vivo targeting specificity in mice bearing PC-3 xenografts. The note with it: female, BALB/c nu/nu, mouse, iv, total radioactivity, 40 pmol i.v., 72 h pi, 4 mice, SD, read-out: tumor activity uptake, non-blocked. The procedure: The activity content was measured using a 2840 automated gamma counter Wizard^2TM (PerkinElmer, Waltham, MA, USA). Instant thin-layer chromatography (ITLC) results were analyzed using Cyclone® Plus (PerkinElmer). Statistical analyses were performed by unpaired, two-tailed t-tests using GraphPad Prism 8 for Windows (GraphPad Software, San Diego, CA, USA); p values below 0.05 were considered significant.
BALB/c nu/nu female mice were implanted subcutaneously with PC-3 cells in PBS (6.5 × 10^6 cells/mouse) on the hind leg. Tumor size was 0.4 ± 0.2 g at the time of the experiment (2−3 weeks following implantations). A group of four mice was used per data point.
The mice were euthanized at 72 h post injection (pi).

Data set [3] can be described thus: Biodistribution in mice bearing PC-3 xenografts. It counts as in vivo, mice (BALB/c nu/nu female). To be noted: female, BALB/c nu/nu, mouse, in vivo, iv, 40 pmol, total radioactivity. The procedure: (§1) Instant thin-layer chromatography (ITLC) results were analyzed using Cyclone® Plus (PerkinElmer). […] BALB/c nu/nu female mice were implanted subcutaneously with PC-3 cells in PBS (6.5 × 10^6 cells/mouse) on the hind leg. […] A group of four mice was used per data point. […] After euthanization, the organs of interest were collected and weighed, and the radioactivity content was measured on a gamma counter.

In a further data set the test system is PC-3 xenografts. Put plainly: Biodistribution in mice bearing PC-3 xenografts. The note with it: mouse, in vivo. In kind it is in vivo, mice (BALB/c nu/nu female). The method, then: as §1
Data set [4] concerns the target T1, GRPR (Homo sapiens, UniProt P30550). The note with it: in vivo; cited from earlier work.
In data set [5] the target is T1, GRPR. The note with it: cited from earlier work.

T1 sequence (P30550 whole entry): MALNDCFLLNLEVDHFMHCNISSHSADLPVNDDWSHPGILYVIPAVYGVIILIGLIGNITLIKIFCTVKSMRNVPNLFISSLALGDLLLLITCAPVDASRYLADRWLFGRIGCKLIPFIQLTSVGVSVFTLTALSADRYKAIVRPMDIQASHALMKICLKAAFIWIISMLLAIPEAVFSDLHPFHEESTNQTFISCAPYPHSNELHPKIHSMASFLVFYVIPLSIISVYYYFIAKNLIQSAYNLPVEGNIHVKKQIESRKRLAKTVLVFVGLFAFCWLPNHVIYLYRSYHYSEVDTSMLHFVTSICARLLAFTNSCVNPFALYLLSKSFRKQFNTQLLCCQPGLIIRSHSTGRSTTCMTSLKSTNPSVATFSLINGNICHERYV

For bombesin, the “secondary structure upon interaction with lipids and membranes” value in data set [1] is listed as “form alpha-helical structures”.

Take `CC[C@H](C)[C@H](NC(=O)[C@H](Cc1c[nH]cn1)NC(=O)[C@H](CC(C)C)NC(=O)[C@H](CCCCN)NC(=O)[C@H](CC(C)C)NC(=O)[C@H](C)NC(=O)[C@H](CCC(=O)O)NC(=O)[C@@H](NC(=O)CNC(=O)[C@H](CCC(=O)O)NC(=O)[C@@H](NC(=O)[C@@H](NC(=O)[C@H](CCCCN)NC(=O)[C@H](C)NC(=O)[C@H](CCCCN)NC(=O)[C@H](CC(N)=O)NC(=O)[C@@H](NC(=O)[C@H](CC(C)C)NC(=O)[C@H](CCCNC(=N)N)NC(=O)[C@H](CCCCN)NC(=O)[C@H](Cc1ccc(O)cc1)NC(=O)[C@H](Cc1ccccc1)NC(=O)[C@H](CC(=O)O)NC(=O)[C@H](CO)NC(=O)[C@@H](NC(=O)CNC(=O)[C@H](Cc1ccc(O)cc1)NC(=O)[C@H](CCCCNC(=O)CSCCC(=O)NCCOCCOCCOCCOCCC(=O)N[C@H](Cc1ccccc1)C(=O)N[C@@H](CCC(N)=O)C(=O)N[C@@H](Cc1c[nH]c2ccccc12)C(=O)N[C@@H](C)C(=O)N[C@H](C(=O)NCC(=O)N[C@@H](Cc1c[nH]cn1)C(=O)N[C@@H](CC(C)C)[C@@H](O)CC(=O)N[C@@H](CC(C)C)C(N)=O)C(C)C)NC(=O)[C@H](CC(=O)O)NC(=O)[C@H](CC(C)C)NC(=O)[C@H](CCC(=O)O)NC(=O)[C@H](CCCNC(=N)N)NC(=O)[C@H](CC(N)=O)NC(=O)[C@H](C)NC(=O)[C@H](CC(C)C)NC(=O)[C@@H](NC(=O)[C@H](CCCCN)NC(=O)[C@H](C)NC(=O)[C@H](CCC(=O)O)NC(=O)[C@H](C)NC(=O)[C@H](CC(C)C)NC(=O)CN1CCN(CC(=O)O)CCN(CC(=O)O)CCN(CC(=O)O)CC1)C(C)C)C(C)C)[C@@H](C)CC)[C@@H](C)O)C(C)C)C(C)C)C(=O)N[C@@H](CC(C)C)C(=O)N[C@@H](C)C(=O)N[C@@H](C)C(=O)N[C@@H](CC(C)C)C(=O)N1CCC[C@H]1C(N)=O` [[^111In]In-DOTA-ABD-RM26, metal not drawn]: the tissue uptake at 72 h in data set [2] was found to be 10 ± 1 %ID/g. In addition, the tissue uptake at 1 h in data set [3] (activity concentration in blood 1 h pi) came out at 32 ± 4 %ID/g; in data set [3] (bone uptake 1 h pi), 3.3 ± 0.4 %ID/g; in data set [3] (kidney uptake 1 h pi), 35 ± 6 %ID/g; in data set [3] (tumor activity uptake 1 h pi), 7 ± 2 %ID/g. In addition, the tissue uptake at 24 h in data set [3] (bone uptake 24 h pi) came to 4.4 ± 0.5 %ID/g; in data set [3] (tumor activity uptake 24 h pi), 11 ± 2 %ID/g. Besides, the tissue uptake at 144 h in data set [3] (tumor activity uptake 144 h pi) came to 10 ± 1 %ID/g. Further, in the data set with PC-3 xenografts, the “activity uptake in other organs at 24 h pi” value is reported as “activity uptake remained stable in the majority of the other studied organs”.

As to “Mercaptopropionyl-[PEG4]-D-Phe-Gln-Trp-Ala-Val-Gly-His-Sta-Leu-NH2 [RM26]”, the renal reabsorption result on GRPR [4] is “low renal reabsorption”. On GRPR [5], the pharmacokinetics result is recorded as “favorable pharmacokinetics”.
